Target: alkaline phosphatase heterodimer IAP/PALP (ALPI/ALPP) on LoVo cells (Homo sapiens, UniProt P09923;P05187 P09923:20-503,P05187:23-506)
Assay: flow; apparent Kd on LoVo cells
Settings: tags: endogenous, LoVo colon cancer cells, label: fluorescent dye
Procedure: A dish of colon cancer LoVo cells in the logarithmic growth phase was digested with 0.2% EDTA in PBS into a monodisperse cell suspension, and then divided into several aliquots. The aliquots were incubated with a fluorescent molecule-labeled aptamer probe solution for 30 min and washed twice with washing buffer, and then the fluorescence intensity on the cell surface was measured with BD FACSalibur flow cytometer. The average fluorescence intensity on the cell surface was plotted against the concentration of the aptamer, and the equilibrium dissociation constant Kd of the aptamer was calculated according to the following formula: Y=BₘₐₓX (Kd+X).

alkaline phosphatase heterodimer IAP/PALP (ALPI/ALPP) on LoVo cells, sequence (P09923 20-503, chain 1 of 2): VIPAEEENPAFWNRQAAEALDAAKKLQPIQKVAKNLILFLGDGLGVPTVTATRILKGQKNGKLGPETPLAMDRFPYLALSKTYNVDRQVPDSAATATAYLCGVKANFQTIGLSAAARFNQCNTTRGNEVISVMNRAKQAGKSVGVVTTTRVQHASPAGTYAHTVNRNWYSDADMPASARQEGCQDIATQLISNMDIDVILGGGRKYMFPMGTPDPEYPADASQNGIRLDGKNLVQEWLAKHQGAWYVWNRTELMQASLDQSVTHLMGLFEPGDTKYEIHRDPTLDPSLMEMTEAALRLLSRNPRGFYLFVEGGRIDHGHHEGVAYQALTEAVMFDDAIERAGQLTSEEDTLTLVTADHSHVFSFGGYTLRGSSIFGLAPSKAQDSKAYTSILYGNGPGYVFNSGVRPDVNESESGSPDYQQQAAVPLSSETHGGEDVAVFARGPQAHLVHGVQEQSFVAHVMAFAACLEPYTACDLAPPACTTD
alkaline phosphatase heterodimer IAP/PALP (ALPI/ALPP) on LoVo cells, sequence (P05187 23-506, chain 2 of 2): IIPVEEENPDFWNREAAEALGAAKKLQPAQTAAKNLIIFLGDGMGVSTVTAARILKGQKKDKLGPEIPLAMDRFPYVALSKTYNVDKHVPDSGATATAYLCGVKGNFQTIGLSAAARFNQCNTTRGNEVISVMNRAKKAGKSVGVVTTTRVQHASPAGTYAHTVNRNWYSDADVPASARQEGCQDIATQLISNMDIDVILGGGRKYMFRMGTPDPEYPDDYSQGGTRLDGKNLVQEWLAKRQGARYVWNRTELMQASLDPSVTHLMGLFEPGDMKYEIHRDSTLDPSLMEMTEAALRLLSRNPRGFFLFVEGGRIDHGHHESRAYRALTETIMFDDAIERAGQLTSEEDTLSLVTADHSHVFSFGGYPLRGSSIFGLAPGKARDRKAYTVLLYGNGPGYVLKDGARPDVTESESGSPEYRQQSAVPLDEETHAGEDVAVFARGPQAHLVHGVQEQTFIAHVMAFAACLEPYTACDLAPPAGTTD

Row | Binder | Kd [nM] | Kd (stem-loop) [nM]
1 | GGGGTCGGTGTGGGTGGTTATGATTGG (ssDNA) [BG2e] | 9.3 | 
2 | BG2 with primer sequences (ssDNA) DNA: ACGCTCGGATGCCACTACAGTCAAGGAATAGGGGTCGGTGTGGGTGGTTATGATTGGCTTCCTTGTCTCATGGACGTGCTGGTGAC | 2.9 | 
3 | GATAACATAGGGGTCGGTGTGGGTGGTTATGATTGGCTGTTATC (ssDNA) [BG2 stem-replaced sequence 5] |  | 3
4 | TAAGAAATAGGGGTCGGTGTGGGTGGTTATGATTGGCTTTCTTA (ssDNA) [BG2 stem-replaced sequence 4] |  | 5.7
5 | CAAGGAATAGGGGTCGGTGTGGGTGGTTATGATTGGCTTCCTTG (ssDNA, PS at nucleotides 1-7 and the last 7 at the 3' end) [thio-modified BG2] |  | 3.5

— patent US20200362349, “APPLICATION OF APTAMER IN RECOGNITION AND BINDING OF ALKALINE PHOSPHATASE HETERODIMER OR TUMOR DETECTION” (INSTITUTE OF CHEMISTRY, CHINESE ACADEMY OF SCIENCES, published 2020)
